In the supplement of paper PMC9732359:
± gives the uncertainty stated by the source.

Experiment: protein stability index of a GFP-peptide fusion (yeast GPS) (PSI 1-4); higher = more stable; sorted into four equal gates, so the index is relative within each strain
Procedure, shortened: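 Plasmids isolated from each sorting gate were PCR-amplified and Illumina-sequenced, and barcodes assigned the reads to strains. The gates, four of equal size, were set by GFP/Cherry fluorescence ratio on mid-log cultures in leucine-free medium. These cultures were yeast carrying a pooled library of tiled 17-residue yeast protein peptides fused downstream of GFP on a plasmid that also expresses Cherry. The protein stability index is the sum of every gate's read frequency times its gate number.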

Sequence	protein stability index (doa10∆)	protein stability index (pdr5∆)	protein stability index (san1∆)	protein stability index (ubr1∆)
DPSMDPELAMALRLSME [RPN10]	2.98 ± 0.062	3.18 ± 0.05	3.28 ± 0.068	2.96 ± 0.054
ANFIFSPASGIVDKYIG [RPT4]	2.81 ± 0.067	2.79 ± 0.097	1.93 ± 0.12	2.42 ± 0.077
PQFNSPYDSNNSNTNLN [SWI1]	2.97 ± 0.054	3.03 ± 0.047	2.76 ± 0.052	2.9 ± 0.043
ELMRIISRNGDTSYKID [SMC1]	2.83 ± 0.087	3.08 ± 0.063	2.99 ± 0.072	2.95 ± 0.058
YNGFIDIFSNLSSDDLL [YCS4]	3.16 ± 0.044	2.99 ± 0.066	3.28 ± 0.056	3.08 ± 0.037
HPFIPLLKEKPNALKPL [RRP6]	2.54 ± 0.065	2.7 ± 0.067	2.94 ± 0.076	2.71 ± 0.053
DHLVSSIPMGGQSINDS [ARP9]	2.78 ± 0.11	2.89 ± 0.093	3.08 ± 0.068	3.13 ± 0.1
SLQEDVSFDFNGVPGQA [MED8]	2.41 ± 0.06	2.97 ± 0.057	2.64 ± 0.086	3 ± 0.053
IAQGIDLVRDIDIDKLI [SRP72]	1.65 ± 0.14	1.23 ± 0.12	1.58 ± 0.21	1.1 ± 0.16
LVRDSKPSKPFNVDDVL [MED8]	2.48 ± 0.055	2.57 ± 0.044	2.46 ± 0.051	2.5 ± 0.047
DDDEIVMPVPNVRSSVL [SKP1]	2.42 ± 0.053	2.25 ± 0.058	2.45 ± 0.062	2.48 ± 0.051
TEENKANTNSVTSMEAA [YIL149C/MLP2]	3.46 ± 0.1	3.5 ± 0.089	3.12 ± 0.08	3.13 ± 0.058
KDRISSCSSKEKTLVLE [SMC4]	2.58 ± 0.097	2.6 ± 0.083	2.45 ± 0.12	2.88 ± 0.098
GGGYFSAAGMTAAIDSV [FAS1]	3.11 ± 0.15	3.23 ± 0.11	3 ± 0.24	3.07 ± 0.15
AGRGFTLAEVKAAGLTA [RPL13A]	2.27 ± 0.073	2.5 ± 0.071	1.56 ± 0.093	1.77 ± 0.044
SNNSTTNTFGSNSAGTS [YJL041W/NSP1]	3.08 ± 0.18	3.2 ± 0.14	–	3.05 ± 0.18
QKVNAVDSTFQKVSENF [SMC3]	3.29 ± 0.091	3.28 ± 0.079	3.44 ± 0.06	3.21 ± 0.04
DKSLDSSNASFNNQGKL [MED1]	2.98 ± 0.045	3.07 ± 0.043	2.68 ± 0.035	2.99 ± 0.045
KMVGLRGFNNQIMQLKK [SNF2]	3.35 ± 0.063	3.21 ± 0.073	3.04 ± 0.068	3.35 ± 0.041
LGSGSNVDVCVMEIGKD [PUP1]	3.59 ± 0.089	3.53 ± 0.087	3.4 ± 0.06	3.51 ± 0.091

Sequence	protein stability index (doa10∆)	protein stability index (pdr5∆)	protein stability index (san1∆)	protein stability index (ubr1∆)
SNGSGIVAAGGGSGAAT [CSL4]	3.53 ± 0.12	3.53 ± 0.18	3.45 ± 0.11	3.48 ± 0.11
SLPEELKKRYDLSYNFN [YMR129W/POM152]	2.84 ± 0.1	2.67 ± 0.094	2.9 ± 0.08	2.94 ± 0.091
FLERFDFYTRHHFTCEI [ITC1]	–	2.26 ± 0.097	2.31 ± 0.16	2.61 ± 0.11
DTLDSKSNGSSDDDNIG [ISW2]	3.26 ± 0.09	3.23 ± 0.074	3.11 ± 0.057	3.03 ± 0.067
YGKPTNQGVNELKYQRS [RPL15A]	2.9 ± 0.16	3.23 ± 0.17	2.59 ± 0.14	3.03 ± 0.087
LKEQELVLYDAENDVIE [BRR2]	3.24 ± 0.16	2.9 ± 0.16	2.99 ± 0.11	2.74 ± 0.11
AAHYNRERIKRGAHVEK [PRP8]	–	–	2.79 ± 0.29	2.77 ± 0.19
LREYLNLPEHIVPGTYI [RPS10A]	3.08 ± 0.078	3.08 ± 0.064	2.82 ± 0.056	2.75 ± 0.059
TNEEVRNMAEEFEYDDE [CYT1]	2.92 ± 0.14	2.3 ± 0.077	2.49 ± 0.098	2.2 ± 0.041
IALMGQDNKKIYVHVRR [ESC2]	2.33 ± 0.081	2.57 ± 0.12	2.47 ± 0.17	2.53 ± 0.068
TQLQRGGTSDMNYLLDN [CSI1]	2.89 ± 0.097	2.82 ± 0.14	3.2 ± 0.078	3.02 ± 0.078
PKEVDGLEVGPVVQVGI [IRR1]	3.38 ± 0.11	2.98 ± 0.088	3.37 ± 0.18	3.23 ± 0.08
VAPVSEIVNMVPSHVPQ [SIR2]	3.01 ± 0.09	2.96 ± 0.069	2.66 ± 0.06	2.87 ± 0.046
LKKLEKEYELLTLQEDY [RPT3]	2.37 ± 0.1	2.31 ± 0.13	2.6 ± 0.12	2.32 ± 0.052
AQDEEIHKQIVIEMKRC [UBP6]	–	–	3.26 ± 0.066	3.2 ± 0.14
SNFADSADYEILYEIRA [YDL116W/NUP84]	1.83 ± 0.081	1.61 ± 0.097	2.42 ± 0.19	1.71 ± 0.099
TIFNLPKNKLVPTLEAK [FAS1]	2.27 ± 0.059	2.34 ± 0.081	3.08 ± 0.051	3.01 ± 0.061
ERDCVIAYGASQLLLER [RET1]	1.18 ± 0.058	1.28 ± 0.057	1.24 ± 0.14	1.11 ± 0.051
TLDYAERHGYIRGIVKQ [RPL2A]	1.71 ± 0.06	1.71 ± 0.083	1.71 ± 0.079	1.8 ± 0.051
IFFDEIDAVGGARFDDG [RPT1]	3.01 ± 0.17	2.77 ± 0.15	3.24 ± 0.088	3.11 ± 0.089
